Tested on: U-87MG cells
Experiment: Investigation of drug sensitivity against GCV and 5-FC (cell death of serially infected cells)
Type: cell-based
Description: The drug sensitivity against ganciclovir (GCV) and 5-fluorocytosine (5-FC) of the virus spRRVe-P1-yCD/sRRVgp-P1-TK produced in Example <3-1> was investigated.
Overall, 293T cells were co-transfected with spRRVe-P1-yCD/sRRVgp-P1-TK by using PLUS reagent (Invitrogen) and lipofectamine (Invitrogen). 2 days later, the supernatant was obtained. The U-87MG cells sub-cultured on the previous day in a 6-well plate at the density of 1.5×10^3 cells/well were added with 8 μl/ml of polybrene, followed by infection with the virus for 8 hours. 5 days after the infection (post-infection 5 d), the supernatant was obtained. The U-87MG cells sub-cultured on the previous day in a 6-well plate at the density of 1.5×10^3 cells/well were infected with the supernatant (p1). The infection was continued serially until p4 phase. The cells of each phase were treated with trypsin-EDTA to prepare single cells. The prepared single cells were distributed in a 12-well plate at the density of 1.5×10^3 cells/well. From the next day of the sub-culture, the cells were treated with […] of GCV and 1 mM 5-FC for 5 days or 8 days, followed by investigation of cell death.
The drug sensitivity of the virus produced in Example <6-2> against GCV and 5-FC was investigated by the same manner as described in Example <3-5> except that the virus produced in Example <6-2> was co-transfected.
The drug sensitivity of the virus produced in Example <7-2> against GCV and 5-FC was investigated by the same manner as described in Example <3-5> except that the virus produced in Example <7-2> was co-transfected to infect stepwise from p1 to p9 and cell death was observed after treating GCV and 5-FC for 9 or 12 days, respectively.
The drug sensitivity of the virus produced in Example <8-2> against GCV and 5-FC was investigated by the same manner as described in Example <3-5> except that the virus produced in Example <8-2> was co-transfected to infect stepwise from p1 to p11 and cell death was observed after treating GCV and 5-FC for 5 or 7 days.
The drug sensitivity of the virus produced in Example <10-2> against GCV and 5-FC was investigated by the same manner as described in Example <3-5> except that the virus produced in Example <10-2> was co-transfected to infect stepwise from p1 to p5 and cell death was observed after treating GCV and 5-FC for 6 or 8 days, respectively.
The drug sensitivity of the virus produced in Example <11-2> against GCV and 5-FC was investigated by the same manner as described in Example <3-5> except that the virus produced in Example <11-2> was co-transfected to infect stepwise from p1 to p9 and cell death was observed after treating GCV and 5-FC for 8 or 12 days, respetively.

[1] = Example 8-3, combined with sRRVgp-P2-TK, p1 to p11, treated 5 or 7 days

Row | Molecule | drug sensitivity against 5-FC [1] | further results
1 | yCD: yeast cytosine deaminase gene (SEQ. ID. NO: 16) (nucleic acid, listed as Saccharomyces cerevisiae) DNA: ATGGTGACAGGGGGAATGGCAAGCAAGTGGGATCAGAAGGGTATGGACATTGCCTATGAGGAGGCGGCCTTAGGTTACAAAGAGGGTGGTGTTCCTATTGGCGGATGTCTTATCAATAACAAAGACGGAAGTGTTCTCGGTCGTGGTCACAACATGAGATTTCAAAAGGGATCCGCCACACTACATGGTGAGATCTCCACTTTGGAAAACTGTGGGAGATTAGAGGGCAAAGTGTACAAAGATACCACTTTGTATACGACGCTGTCTCCATGCGACATGTGTACAGGTGCCATCATCATGTATGGTATTCCACGCTGTGTTGTCGGTGAGAACGTTAATTTCAAAAGTAAGGGCGAGAAATATTTACAAACTAGAGGTCACGAGGTTGTTGTTGTTGACGATGAGA | – | drug sensitivity against 5-FC (Example 3-5, 1 mM 5-FC for 5 days or 8 days, post-infection 5 d to p4): low drug sensitivity
2 | CD4: CD gene where 32 sites showing recombination were all mutated (SEQ. ID. NO: 19) (nucleic acid, CD4 gene) DNA: ATGGTGACAGGGGGAATGGCAAGCAAGTGGGATCAGAAGGGTATGGACATTGCCTATGAGGAGGCGGCCTTAGGTTACAAAGAGGGTGGTGTTCCTATTGGCGGATGTCTTATCAATAACAAAGACGGAAGTGTTCTCGGTCGTGGTCACAACATGAGATTTCAAAAGGGATCCGCCACACTACATGGTGAGATCTCCACTTTGGAGAACTGCGGCAGGCTGGAAGGCAAGGTGTACAAAGATACCACTCTGTACACCACCCTGTCTCCATGCGACATGTGTACAGGTGCCATCATCATGTATGGTATTCCACGCTGTGTTGTCGGTGAGAACGTTAATTTCAAAAGTAAGGGCGAGAAATACTTGCAAACCAGGGGCCACGAGGTGGTGGTTGTTGACGATGAGAGGTGTAAAAAGATCATGAAACAATTTATCGATGAAAGACCTCAGGACTGGTTCGAGGACATCGGCGAGTAA | – | drug sensitivity against 5-FC (Example 6-3, spRRVe-P1-CDs/sRRVgp-P1-TK, p1-p4): weak drug sensitivity
3 | CD8: yeast CD gene optimized by human codon (SEQ. ID. NO: 23) (nucleic acid, CD8 gene) DNA: ATGGTTACTGGGGGAATGGCATCTAAGTGGGATCAGAAAGGTATGGACATCGCTTATGAAGAGGCTGCTCTCGGCTACAAAGAGGGTGGAGTGCCTATCGGAGGGTGCCTGATCAACAACAAGGACGGCAGTGTGCTGGGGAGGGGCCACAATATGAGGTTCCAAAAAGGCTCCGCCACTCTCCACGGGGAAATTAGTACCCTCGAGAATTGCGGACGATTGGAAGGGAAGGTGTACAAGGATACAACACTGTACACCACCCTGTCACCCTGTGATATGTGCACAGGCGCCATTATCATGTACGGAATCCCTAGATGTGTCGTGGGGGAGAATGTAAACTTCAAAAGTAAGGGGGAGAAATATCTCCAGACCCGGGGGCACGAAGTCGTCGTTGTGGACGATGAACGGTGTAAGAAGATCATGAAGCAGTTTATCGATGAGAGGCCCCAGGACTGGTTCGAAGACATCGGGGAATAA | excellent drug sensitivity, compared to yCD gene | –
4 | CD7: yeast CD gene optimized by human codon (SEQ. ID. NO: 22) (nucleic acid, CD7 gene) DNA: ATGGTAACTGGTGGCATGGCCTCAAAGTGGGATCAGAAAGGAATGGACATCGCTTACGAGGAGGCCGCACTGGGCTATAAGGAGGGCGGCGTCCCTATAGGCGGTTGCCTGATTAACAATAAAGACGGCTCAGTGCTGGGAAGGGGGCACAACATGAGATTTCAGAAAGGCAGCGCAACTCTGCACGGCGAAATCTCCACTCTGGAGAACTGCGGGCGGCTGGAGGGAAAGGTTTATAAAGATACTACCTTGTATACAACTCTGTCCCCCTGCGATATGTGCACCGGCGCCATCATAATGTACGGAATACCCAGGTGCGTGGTGGGAGAGAACGTGAATTTTAAGTCAAAAGGTGAGAAGTACCTGCAGACTCGCGGCCATGAGGTGGTTGTTGTTGACGATGAAAGGTGCAAGAAGATTATGAAGCAGTTCATTGATGAAAGACCCCAGGACTGGTTTGAGGATATCGGAGAGTAG | excellent drug sensitivity, compared to yCD gene | –
5 | CD6: yeast CD gene optimized by human codon (SEQ. ID. NO: 21) (nucleic acid, CD6 gene) DNA: ATGGTTACTGGAGGGATGGCCAGTAAATGGGACCAGAAGGGTATGGATATTGCATACGAGGAGGCCGCTTTGGGATACAAGGAGGGGGGTGTCCCTATAGGCGGTTGCCTGATCAATAATAAAGACGGCTCTGTCTTGGGAAGAGGACACAATATGCGCTTTCAGAAGGGAAGCGCCACCCTGCATGGAGAGATCTCTACCCTCGAAAATTGCGGAAGGCTCGAAGGCAAAGTTTACAAAGATACCACCCTCTACACAACGCTGTCCCCCTGTGATATGTGCACCGGTGCCATTATCATGTATGGCATCCCACGCTGCGTTGTAGGAGAGAATGTAAACTTCAAATCCAAGGGAGAGAAGTATCTCCAGACCCGAGGGCACGAAGTTGTGGTGGTGGACGATGAAAGGTGTAAGAAGATCATGAAGCAGTTCATAGATGAGCGGCCTCAGGACTGGTTCGAGGATATTGGCGAATGA | excellent drug sensitivity, compared to yCD gene | drug sensitivity against GCV and 5-FC (Example 10-3, spRRVe-P2-CDs (CD6, CD10-CD16)/sRRVgp-P2-TK, p1 to p5, treated 6 or 8 days): most excellent drug sensitivity
